The text below walks through data of the supplement of paper PMC10126150.

± gives the standard deviation of the averaged measurements.
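Also: ATP exposure 15 min at 22 °C before imaging.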

For this data set, the system named is ATP. The data set is described as follows: switch fluorescence ratio, 500 uM ATP over buffer (Cy3 cluster intensity, sum of 5 cycles each) (fold (ratio)); higher = stronger signal-on switching upon ATP binding; sequences stand for … in TCGTCGGCAGCGTCAGATGTGTATAAGAGACAGTTTTTTTTTTTTTTTTTTTTTTTTT…TC. The settings on record: aptamer strand: ATP DNA aptamer (quencher-CACCTGGGGGAGTATTGCGGAGGAAGG + anchor), 100 nM annealed; ATP concentration: 500 uM. The gist of the method:
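Cy3-labelled switching-strand clusters on a modified Illumina MiSeq flow-cell were annealed to 100 nM quencher-labelled ATP aptamer, imaged in selection buffer, then imaged after 15 min with 500 uM ATP at 22 °C. Five buffer/ATP cycles ran, with NaOH stripping and re-annealing between them. The fluorescence ratio is summed target-cycle over summed buffer-cycle Cy3 intensity per cluster, averaged per switch-domain sequence. Clusters outside 100-1000 RFU were excluded.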
Turning to AAGTGGTGCT, the switch fluorescence ratio was 1.024 ± 0.0011.

GGCCCGGGTT: the switch fluorescence ratio turned out to be 0.994 ± 0.019.

As to ACGGTTTCTG, the switch fluorescence ratio stood at 1.04 ± 0.029.

Take TACTGCGGAA: the switch fluorescence ratio is 1.79 ± 1.2.

Consider GTTCTGGGAG, for which the switch fluorescence ratio was found to be 1 ± 0.012.

For the sequence TATGATGGAA, the switch fluorescence ratio was 0.966 ± 0.024.

As to AGAAAGTTTG, the switch fluorescence ratio came to 1.01 ± 0.044.

Consider GATGGTCGTT, for which the switch fluorescence ratio turned out to be 1.011 ± 0.0079.

In the case of CGCGAATTTG, the switch fluorescence ratio came out at 1.02 ± 0.021.

For TCGGATAGTC, the switch fluorescence ratio stood at 1.01 ± 0.026.

TGCTTCAGGG: the switch fluorescence ratio is 1.03 ± 0.014.

As for GGGGGCCGGT, the switch fluorescence ratio worked out at 1.01 ± 0.058.

As to GAGCGCCGGG, the switch fluorescence ratio came out at 1.01 ± 0.017.

For the sequence AATAGGGATT, the switch fluorescence ratio was 0.984 ± 0.019.

Regarding TCGAAGGGGA, the switch fluorescence ratio was determined as 0.971 ± 0.035.

Regarding AAGTTATGCT, the switch fluorescence ratio was 1 ± 0.014.

Consider AGGAGGTGGG, for which the switch fluorescence ratio was 0.981 ± 0.017.

For TCACGCTTGA, the switch fluorescence ratio turned out to be 1.05 ± 0.052.

On to CATGGAACCT, for which the switch fluorescence ratio turned out to be 1.92 ± 0.11.

With TGGAGAATTT, the switch fluorescence ratio is 1.02 ± 0.044.

Take TAAGGGGCGG: the switch fluorescence ratio stood at 0.989 ± 0.04.

GGTTTACTTC: the switch fluorescence ratio is 0.9967 ± 0.0016.

Turning to CATGAAAAAT, the switch fluorescence ratio is 1 ± 0.011.

Turning to CTTGTGGCGG, the switch fluorescence ratio came to 0.97 ± 0.0098.

In the case of AAGTCGGTGT, the switch fluorescence ratio was determined as 0.988 ± 0.027.

On to GGGCAAGTCA, for which the switch fluorescence ratio amounted to 1.02 ± 0.014.

As to AGAAAGCGAC, the switch fluorescence ratio was 1.17 ± 0.093.

Turning to GCCAGGGGGA, the switch fluorescence ratio is 1.09 ± 0.12.

On to AGGTCAGAGA, for which the switch fluorescence ratio came out at 1 ± 0.028.

Take CGGTATATTT: the switch fluorescence ratio is 0.9712 ± 0.0058.

Consider GATCGGAATA, for which the switch fluorescence ratio came out at 1.87 ± 0.091.

CGTGCGGATG: the switch fluorescence ratio turned out to be 1.02 ± 0.0057.

Consider GAGCTAGGAG, for which the switch fluorescence ratio came to 1 ± 0.024.

For TTGGGTGAAC, the switch fluorescence ratio is 1.002 ± 0.0088.

For TTTGGGTTTG, the switch fluorescence ratio was found to be 1.01 ± 0.029.

Regarding AATTAGCCAT, the switch fluorescence ratio amounted to 0.987 ± 0.011.

In the case of ACACTACGTC, the switch fluorescence ratio worked out at 1.51 ± 0.056.

Turning to TTTAGATTGT, the switch fluorescence ratio stood at 1.01 ± 0.029.

For TTTGCAAATT, the switch fluorescence ratio worked out at 1.03 ± 0.039.

ACAGGTTAAT: the switch fluorescence ratio was found to be 1.02 ± 0.02.

Consider GGATTAAAAG, for which the switch fluorescence ratio is 1.01 ± 0.067.

With AATGTGGGAA, the switch fluorescence ratio came out at 1.01 ± 0.044.

With CCTTGAATCG, the switch fluorescence ratio was determined as 0.978 ± 0.023.

On to ACTAAAGGG, for which the switch fluorescence ratio came to 1.02 ± 0.028.

With ACGGTGACTA, the switch fluorescence ratio turned out to be 1.1 ± 0.023.

Take TGGGGCGCCG: the switch fluorescence ratio was determined as 1.13 ± 0.18.

Take GGGGTTAGAA: the switch fluorescence ratio came to 0.984 ± 0.0077.

As to CAAAAGAACG, the switch fluorescence ratio was 0.975 ± 0.031.

In the case of ATTTGTAGGT, the switch fluorescence ratio stood at 0.9967 ± 0.0019.

For CAAGTGGCAC, the switch fluorescence ratio came out at 0.977 ± 0.022.

As to CAGATGGGTA, the switch fluorescence ratio is 0.971 ± 0.025.

With AGAGTGGGCC, the switch fluorescence ratio came to 0.956 ± 0.07.

TTTATTACGC: the switch fluorescence ratio was 0.999 ± 0.053.

Consider AGTCGGCTGT, for which the switch fluorescence ratio amounted to 0.99449 ± 0.00015.

As to AATTGATTTT, the switch fluorescence ratio is 1.01 ± 0.03.

With GGCGGGAAAG, the switch fluorescence ratio turned out to be 0.983 ± 0.037.

On to TAAACTGCGG, for which the switch fluorescence ratio is 1.03 ± 0.02.

Take GTGGGGCATA: the switch fluorescence ratio came out at 0.982 ± 0.017.

Take GATAAGAGTG: the switch fluorescence ratio was 1.02 ± 0.052.

For the sequence TAAGGACGGC, the switch fluorescence ratio is 1.06 ± 0.035.

As for GGCCTTTATT, the switch fluorescence ratio turned out to be 1.01 ± 0.031.

GATCGGCTTG: the switch fluorescence ratio turned out to be 0.984 ± 0.013.

As to GCGAACGGGG, the switch fluorescence ratio turned out to be 1.01 ± 0.049.

As for TTTGTGGGTC, the switch fluorescence ratio turned out to be 0.995 ± 0.043.

On to CGGCTAAGGG, for which the switch fluorescence ratio was determined as 0.981 ± 0.014.

Take GCGTGTCCGT: the switch fluorescence ratio was determined as 1.01 ± 0.025.
